# Reference: the nanobody polyreactivity screen of Harvey et al. (2022)
# Assay: yeast display, Sf9 membrane polyspecificity reagent, FACS + sequencing; frameworks hold sequencing errors
# In short: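 A synthetic nanobody library was expressed on Saccharomyces cerevisiae BJ5465 by galactose induction for 36–48 hours. The library was stained for 1 hour at 4 °C with 10% biotinylated, detergent-solubilized Sf9 membrane reagent and enriched with streptavidin microbeads before FACS. Low and high (top ~1%) gates were set on anti-HA fluorescence for expression and streptavidin fluorescence for reagent binding, and each polyreactivity label reflects the gate of origin.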
row,Sequence,polyreactivity (PSR sort gate)
1,QVQLVESGGGLDQAGGSLRLRCAASGRNFRWYTMVWYRQAPGKEREFVAAITWSDTSTSYADSVKGRFTISRDNAKNTVYLQMNSLIPEYTAVYYCNAGDKVSSYWYDYWGQGTQVNVSS,low polyreactivity
2,QVQLVESGGGLVQAGGSLRLSCAASGRIFWTYAMGWYRHAPGKERELVAVISIGGTTYYADTVKGRFTISRDNAKNTVYLQMNSLKPEDTAVYYSAAPPSNATGFLSYDYWGQGTQVTVSS,low polyreactivity
3,QVQLVESGGGLVQAGGSLRLSCAASGFTFYRNAMGWYRQAPGKERELVAAITWSGTSTYYADSVKGRFTISRDNAKNTVYLQMNSPKPEDTAVYYCNTVGYRGRSNSRFYYWGQGTQVTVSS,high polyreactivity
4,QVQLVESGGGLVQARGSLRLSCAASGRTFRSYAMGWYRQAPGKERELVAVITRSTGNTYYADSVKGRFTISRDNAMNTVYLQMNSLKPEDTAVYYCARQYRRYDYWGQGTQVTVSS,high polyreactivity
5,QVQLVESGGGLVQAGGSLRLSCADSGPTIFYYAMGWYRTAPGKERELVAAIRRSGGRTRYADSVKGRFTISRDNAKNTVYLQMNSLKPEDTAVYYCAADDGTHRRGYDYWGQGTQVTVSS,low polyreactivity
6,QVQLVESGGGLVQAGGSLRLSCAASGGTFRYYAMAWYRQAPGKERELVARIRYNGGSTYYADSVKGRFTISRDNAQYTVYLQMNSLKPEDTAVYYCAGRRTGGMGYWGQGTQVTVSS,high polyreactivity
7,QVQLVESGGGLVQAGCSLRLSCAASGFTFYPYAMGWYRQAPGKERELVAAITRGGSTYYADSVKGRFTISRDNEKNTVYLQMNSLTPEDTAVYYCNAYWQGYGYDYWGQGTQVTVSS,low polyreactivity
8,QVQLVESGGGLVQAGGSLRLSCAASGSTFRRYAMGWYRQAPGNERELVAAITGSGGRTYYADSVKGRFTISRDNAKNTVYLQMNSLKPEDTAVYYCAARGTHSRRRYYYWGQGTQVTVSS,high polyreactivity
9,QVQLVESGGGLVQAGGSLRLSCAASGRTFPINAMGWYRQAPGKERELVASIRWTDGTTYYADSVKGRFTISRDSAKNTVYLQMNSLKPEDTAVFYCAADAEGSASKYDYWGQGTQVTVSS,low polyreactivity
10,QVQLVESGGGLVQAGGSLRLSCAASGFTFYRYAMGWYRQAPGKERELVATISASGASTYYADSVKGRFSISRDNAKNNVYLQMNRLKPEDTAVYYCAVRYKSWYGFNYWGQGTQVTVSS,high polyreactivity
11,QVQIVESGGGLVQAGGSLRLSCAASGLIIPFYAMGWYRQAPGKERELVAAISWSAGSTYYADSVKGRFTISRDNAKNTVYLQMNSLKPEDTAGYYCAATAYYYYDYDYWGQGTQVTVSS,low polyreactivity
12,QVQLVESGGGLVQAGGSLRLSCAASGFIFSSYAMGWYRQAPGKESELVAAITSGGSTNYADSVKGRFTISRDNAKNTVYLQMNSLKPEDTADYYCATLPGGSWFFHWWSTGGDDEYWGQGTQVTVSS,low polyreactivity
13,QVQHVESGGGLVQAGGSLRLSSAASGRTYWPNAMGWYRQAPGKERELVAAISSGGSTNYADSVKGSFTISRDNAKNTVYLQMNSLKPEDTAVYFWSADGQGDKYDYYGHNYWGQGTHVTVSS,low polyreactivity
14,QVQLVESGGGLVQAVGSLRLSCAPSGSTFPYYAMGWYRQAPGKERELVASIRKRGGGTYYADSVKGRFTISRDNAKNTVYLQMNSLKPEDTAVYYCAVRVYQFRYTGYDYWGQGTQVTVSS,high polyreactivity
15,QVQLLESGVGKVQAGGRLRLSCAASGSIFLIYAMGWYRQAPGKESELVAAISSGGSKYYADSVNGRFTISRDNAKNTVYLQMNSVKPEDTAVYYCATYSTCVAYHLYYWGQGTQVSVSS,low polyreactivity
16,QVQLVESGGGLVQAGGSLRLSCASYGSIFAYYTMGWYRQAPGKARELVATISSRGGSKNYADSVKGRFTISRDNAKNPVYLQMNSLRPEDTAVYYCYAYHYQSGITVSEYDYWGQGTQVTVSS,high polyreactivity
17,QVQLVESGGGLVQAGGSLRLSCAASGSTFRPYAMGWYRQAPGKERELVARITKNGGSTYYADSVKGRFTISRDNAKNTVYLQMNSLKPEDTEVYYCAVRAWDPYTGKSDYWGQGTQVTVSS,low polyreactivity
18,QVQLVESAGGLVQAGRSLRLSCAASGRNFLGNDMGWYRQAPGKERELVAAISYGDGSTYYADSVKGRFTISRDNAKNTVYLQMNSLKPEDTAVYYCAAERYTIPPIYDYWGQGTQVTVSS,low polyreactivity
19,QVQLVESGGGLVQAGGSLRLSCAASGFTFKRYAMGWYRQAPGKERELVAAISYGGSRTYYADSVKGRFTISRDNAKNTVYLQMNSLKPEDTAVYYCNFRRRTWHYITSMDYWGQGTQVTVSS,high polyreactivity
20,QVQLVESGGGLVQAGGSLRLSCAASGSIFYVYAMGWYRQAPGKERELVAAITSSGTTNYADSVKGRFTISRDNAKNTVYLQMNSLKPEDTAVYYCAADFYYYKKQYDYWGQGTQVTVSS,low polyreactivity
21,QVQLVESGGRLVQAGGSLRLSCAASGSTLYAYAMGWYRPAPGKERELVAAIRTGGSTYYADSVNGRFTISRDNAKNTVYLQMNSLKPEDTAVYYCAADHGYQYGYWGQGTQVTVSS,low polyreactivity

row,Sequence,polyreactivity (PSR sort gate)
1,QVQLVESGGGLVQAGGSLRLSCAASGSTFSRYAMGWSRQAPGKERELVAAISSSGGSTYYADSVKGRFTISRDNAKNTVYLQMNSLKPEDTAVYYCAARIWRTRRYDYWGQGTQVTVSS,high polyreactivity
2,QVQLVESGGGLVQAGGSLRLSCAASGNTFGYYAMGWYRQAPGKERELVAAITWNGDRTYYADSVKGRFTISRDNAKNTVYLQMNSLKPEDTAVYYCNKVNPYRHGYWGQGTQVTVSS,high polyreactivity
3,QVQLVESGGGLVQAGGSLRLSCAASGLTFAPYVMGWYRQAPGKERELVPAISRSGGSTYYADSVKGRFTISRDNAKNTVYLQMNSLKPEDTAVYYCNRDVSLSAFDYWGQGTQVTVSS,high polyreactivity
4,QVQLVESGGGLLQAGGSLRLSCAASGFTFATYAMGWYRQAPGKERELVAAISTSGGSTYYADSVKGRFTISRDNAKNTVYLQMNSLKPEDTAVYYCNAVSRSYRYAGVPGFHYDYWGQGTQVTVSS,high polyreactivity
5,QVQLVESGGGLVQAGGSLRLSCAASGFIDVSYAMGWYRQAPGKERELVAAIDRIGGITYYADSVKGRFTISRDNAKNTVYLQMNSLKPEDTAVYYCAAAARYATVRVGREYYWGQGTQVTVSS,low polyreactivity
6,QVQLVESGGGLVQAGGSLRLSCAASGFIFGFYAMGWYIQAPGKERELVAAISGGGGRTNYADSVKGRFTISRDYAKNTVYLQMNSLNPEDTAVYYCAATPGRRRYRYYYWGQGTQVTVSS,high polyreactivity
7,QVQLVESGGGLVQAGRSLRLSCAASGRIFQWNAMGWYRQAPGKERELVADITYSGSSTNYADSVKGRFTISRDNAKNSVYLQMNSVKPEVSAVYYCTRDFYQYLSYFWHYVYWGQGTQETVSS,low polyreactivity
8,QVQLVESGGGLVQAGGSLRLSCAASGRTLAGNAMGWYRQAPGQERELVAAISQGGGSTYYADSVKGRFTISRDKAKNTVYLQMNSLKPEDTAGYYCAAEIPRLWASFATLWYDYWGQGTQVTVSS,low polyreactivity
9,QVQLVESGGALVQAGGSLRLSCAASGITFFTNAMGWYRQAPGKERELVAAISSGGRTYYADSVKGRFTISRDNAKNTVYLQMKSLKPEDTAVYYCAKRSYFYPDYYWGQGTQVTVSS,high polyreactivity
10,QVQLVESGGGLVQAGGSLRLSCAASGSILYVNAMGWYRQATGKERELVAAITRTGGSTYYADSVKGRFTISRDNAKNTVYLQMNSLKPEDTAVYYCNAASSLPGYDYWGQGTQVTVSS,high polyreactivity
11,QVQLVDSGGGLVQAGGRLRLSCAASGITFYYNAMGWYRQAPGKERELVATISSRGGSTYYADSVKGRFTISRDNAKNTVYLQMNSLKPEDTEVYYCNAGRSRYRWSTTGYTQVRDDYWGQATQVTVSS,high polyreactivity
12,QVQLVEAGGGLVQAGGSLRLSCAASGFIFYGYMGWYIQAHGKERELVAAISYTGGSTYYADSVKGRFTISRDNAKNTVYLQMISLKPEDTAVYYCARDWRTKWFGYWGQGTQVTVSS,low polyreactivity
13,QVQLVESGGGLVQEGGSLRLSCAASGRTFPYTVMGWYRQAPGKERELVAGITGSGDSTFYADSVKGRFTISRDNAKNTVYIQMNSLKPEDTAVYYCAARYRTLNDGYIRIYWGQGTQVTVSS,low polyreactivity
14,QVQLVESGGGLFQAGGSLRLSCAASGFIFQYYDMGWYRQAPGKERELVAAINYSGGNTYYADSVKGRFTISRDNAKNTVYLQLNILKPEDSEVFYCAAAPSVSCTRLYEYWGQGTQVTVSS,high polyreactivity
15,QVQLVESGGGLVQAGGSLRLSCAASGRIFGDYGMGWYRQAPGKDRELVAAITDRGGTTYYADSVKGRFTISRDNAKNTVYVQKNSLQPEDTAVYYCNADTVVVWYSPSREYDYWGQGTQVTVSS,low polyreactivity
16,QVQLVEAGGGLVQAGGSLRLSGAASGRTFSLYAMGWYRQAPGKERELVAAITVSGGSTYYADSVKGRFTISRDNAKNTVYLQMNSLKPEDTAVYYCAAEGQPFRYYLLDYWGQGTQVTVSS,low polyreactivity
17,QVQLVESGGGLVQAGGSLRLSCAASGRIFGWYAMGWYRQAPGKERELVAAISGRGGSTFYADSVKGRFTISRDNEKNTVYLQMNSLKPEDTAVYYCNAYSWYGYDYWGQGTQVTVSS,high polyreactivity
18,QVQVVESGGGLVQAGGSLLLSCAASGSTFEYNAMGWYRQAPGKERELVASSTNYADSVKGRFTISRDNAKNTVYLQMNSLKPEDTAVYYCARELGVNRKHDYWGQGTQVTVSS,low polyreactivity
19,QVQLVESGGGLVQAGGSLRLSCAASGRIFLTYAMGWYRQAPGKERELVAAITRRGGRTNYADSVKGRFTISRDNAKNTVYLQMNSLKPEDTAVYYCAKSPWPSHLDYDYWGQGTQVTVSS,low polyreactivity
20,QVHLVESGGGLVQAGGSFRLSCAASGSIFDGYSMGWYRQAPGKERELVAAISYRVGRTYYADSVKGRFTISRDNAKNTVYLQMNSLKPEDTAVYYCAAGYYGNGVFEYDYWGQGTQVTVSS,low polyreactivity
